The target in this series is T1, SFB-ZC3H18 (human, UniProt Q86VM9 1-953).
T1 sequence: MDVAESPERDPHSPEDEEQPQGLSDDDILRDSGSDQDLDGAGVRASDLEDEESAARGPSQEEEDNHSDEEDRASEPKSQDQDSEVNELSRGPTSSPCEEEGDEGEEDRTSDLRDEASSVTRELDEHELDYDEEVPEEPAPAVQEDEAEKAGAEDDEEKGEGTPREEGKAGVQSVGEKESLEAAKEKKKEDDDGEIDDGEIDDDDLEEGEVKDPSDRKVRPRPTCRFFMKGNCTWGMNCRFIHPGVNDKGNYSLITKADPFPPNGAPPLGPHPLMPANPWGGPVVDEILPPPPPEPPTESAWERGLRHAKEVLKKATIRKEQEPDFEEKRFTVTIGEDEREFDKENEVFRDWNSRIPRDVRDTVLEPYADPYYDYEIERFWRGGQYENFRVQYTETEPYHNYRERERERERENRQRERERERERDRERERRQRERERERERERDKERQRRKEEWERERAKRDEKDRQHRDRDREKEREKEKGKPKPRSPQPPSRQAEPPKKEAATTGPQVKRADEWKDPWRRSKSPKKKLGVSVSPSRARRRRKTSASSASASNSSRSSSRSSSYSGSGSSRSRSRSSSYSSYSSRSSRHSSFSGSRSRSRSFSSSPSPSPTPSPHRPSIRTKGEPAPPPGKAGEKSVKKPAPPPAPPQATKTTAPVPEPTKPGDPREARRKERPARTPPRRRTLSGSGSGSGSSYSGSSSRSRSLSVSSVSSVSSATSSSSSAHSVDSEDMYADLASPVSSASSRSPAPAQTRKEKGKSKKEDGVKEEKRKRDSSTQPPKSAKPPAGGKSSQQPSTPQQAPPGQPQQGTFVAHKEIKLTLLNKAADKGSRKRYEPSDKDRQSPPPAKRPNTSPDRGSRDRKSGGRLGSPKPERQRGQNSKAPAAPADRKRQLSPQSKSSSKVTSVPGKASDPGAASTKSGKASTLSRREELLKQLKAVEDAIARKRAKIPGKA
As to the kind of experiment: EMSA; cold competition and anti-S-tag supershift confirm; EMSA: 20 mM Tris-HCl pH 8.0, 50 mM NaCl, 1 mM MgCl2, 5 mg/ml BSA, 1 mM DTT, 20 min at room temperature; 5% native gel, 0.25x TBE, 4 °C. Particulars: protein: recombinant; C-terminal 6xHis; label: 32P 5' end; duplex of complementary 50-mers.

B1: E2FA/BWT (dsDNA)
DNA 1: TAGCCCCTTGGTTTCCGTGGCAACGGAAAAGCGCGGGAATTACAGATAAA
DNA 2: TTTATCTGTAATTCCCGCGCTTTTCCGTTGCCACGGAAACCAAGGGGCTA
For B1, the binding result is reported as “binds”.

Values taken from article PMC6789141, “ZC3H18 specifically binds and activates the BRCA1 promoter to facilitate homologous recombination in ovarian cancer”.
